Source: patent publication US20190300618A1 (Merck Sharp & Dohme, published 2019)

T1: W13A
T1 construct: also called hCD27 W13A
T1 receptor: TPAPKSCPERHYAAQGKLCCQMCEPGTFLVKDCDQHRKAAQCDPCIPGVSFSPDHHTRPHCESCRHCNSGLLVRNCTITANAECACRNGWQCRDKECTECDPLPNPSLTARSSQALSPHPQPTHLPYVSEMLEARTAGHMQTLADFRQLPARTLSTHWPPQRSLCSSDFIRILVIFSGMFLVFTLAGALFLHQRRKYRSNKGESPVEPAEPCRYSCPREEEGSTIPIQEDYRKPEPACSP

T2: Q15A
T2 construct: also called hCD27 Q15A
T2 receptor: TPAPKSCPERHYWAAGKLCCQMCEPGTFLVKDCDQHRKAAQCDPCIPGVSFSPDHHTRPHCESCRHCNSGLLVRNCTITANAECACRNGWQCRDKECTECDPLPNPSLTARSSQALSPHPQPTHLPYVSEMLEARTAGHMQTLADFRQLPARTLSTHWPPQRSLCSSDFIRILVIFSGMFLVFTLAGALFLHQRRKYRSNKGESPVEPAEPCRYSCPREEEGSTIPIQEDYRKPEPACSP

T3: G16A
T3 construct: also called hCD27 G16A
T3 receptor: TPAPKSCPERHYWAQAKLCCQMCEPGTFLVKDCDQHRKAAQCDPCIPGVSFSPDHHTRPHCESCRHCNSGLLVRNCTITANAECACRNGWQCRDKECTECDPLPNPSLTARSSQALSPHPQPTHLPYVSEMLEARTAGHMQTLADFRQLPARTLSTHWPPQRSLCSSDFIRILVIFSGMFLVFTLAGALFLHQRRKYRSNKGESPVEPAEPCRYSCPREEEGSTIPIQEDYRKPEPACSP

T4: K17A
T4 construct: also called hCD27 K17A
T4 receptor: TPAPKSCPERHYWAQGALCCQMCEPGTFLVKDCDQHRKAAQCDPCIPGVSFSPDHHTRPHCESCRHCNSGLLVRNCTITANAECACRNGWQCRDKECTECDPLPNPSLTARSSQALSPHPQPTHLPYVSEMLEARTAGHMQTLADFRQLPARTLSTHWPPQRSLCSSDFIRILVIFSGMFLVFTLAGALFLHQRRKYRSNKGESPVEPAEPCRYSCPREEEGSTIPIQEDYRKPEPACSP

T5: R37A
T5 construct: also called hCD27 R37A
T5 receptor: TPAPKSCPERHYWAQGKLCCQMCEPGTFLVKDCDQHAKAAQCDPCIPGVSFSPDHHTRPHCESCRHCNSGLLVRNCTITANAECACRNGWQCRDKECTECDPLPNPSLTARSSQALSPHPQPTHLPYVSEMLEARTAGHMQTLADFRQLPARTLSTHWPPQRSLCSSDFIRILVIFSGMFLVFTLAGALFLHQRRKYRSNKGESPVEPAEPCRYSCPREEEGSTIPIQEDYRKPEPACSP

T6: Q41A
T6 construct: also called hCD27 Q41A
T6 receptor: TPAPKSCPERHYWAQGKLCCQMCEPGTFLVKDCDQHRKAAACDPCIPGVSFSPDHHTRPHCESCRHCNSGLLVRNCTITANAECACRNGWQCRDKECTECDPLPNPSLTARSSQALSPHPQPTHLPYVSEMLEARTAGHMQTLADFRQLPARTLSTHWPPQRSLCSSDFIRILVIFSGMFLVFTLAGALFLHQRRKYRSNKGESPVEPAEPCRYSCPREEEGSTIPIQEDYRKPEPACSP

T7: V49A
T7 construct: also called hCD27 V49A
T7 receptor: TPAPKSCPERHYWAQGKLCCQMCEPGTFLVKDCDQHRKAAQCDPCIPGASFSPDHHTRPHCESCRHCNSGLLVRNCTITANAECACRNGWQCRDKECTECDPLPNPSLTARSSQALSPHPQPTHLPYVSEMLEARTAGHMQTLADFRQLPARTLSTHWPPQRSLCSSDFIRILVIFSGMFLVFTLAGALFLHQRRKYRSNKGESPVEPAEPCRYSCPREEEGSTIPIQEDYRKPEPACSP

T8: R93A
T8 construct: also called hCD27 R93A
T8 receptor: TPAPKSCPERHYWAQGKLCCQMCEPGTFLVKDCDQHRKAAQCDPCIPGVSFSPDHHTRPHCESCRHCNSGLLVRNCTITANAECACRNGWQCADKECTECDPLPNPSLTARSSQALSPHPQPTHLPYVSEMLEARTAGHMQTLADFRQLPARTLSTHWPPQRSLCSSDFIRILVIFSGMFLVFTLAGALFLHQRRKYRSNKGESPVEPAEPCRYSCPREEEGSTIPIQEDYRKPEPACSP

T9: P8A
T9 construct: also called hCD27 P8A
T9 receptor: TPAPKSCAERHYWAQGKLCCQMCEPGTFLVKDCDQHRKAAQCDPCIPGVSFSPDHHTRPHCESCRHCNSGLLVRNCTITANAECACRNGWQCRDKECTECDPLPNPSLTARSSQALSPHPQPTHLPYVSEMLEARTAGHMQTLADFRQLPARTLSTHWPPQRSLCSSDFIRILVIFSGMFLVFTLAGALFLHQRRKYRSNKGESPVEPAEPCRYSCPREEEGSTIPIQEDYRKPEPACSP

T10: E9A
T10 construct: also called hCD27 E9A
T10 receptor: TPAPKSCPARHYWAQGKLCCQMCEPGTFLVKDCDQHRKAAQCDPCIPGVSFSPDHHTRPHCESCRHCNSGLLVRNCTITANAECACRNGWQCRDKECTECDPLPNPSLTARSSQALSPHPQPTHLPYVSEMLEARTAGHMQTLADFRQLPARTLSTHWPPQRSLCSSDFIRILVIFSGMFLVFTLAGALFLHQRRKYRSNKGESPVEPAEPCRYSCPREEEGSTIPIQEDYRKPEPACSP


Assays:
Assay in all cases: flow cytometry, CHO-K1; sub-column 1 of 2
W13A = target: T1, W13A
Q15A = target: T2, Q15A
G16A = target: T3, G16A
K17A = target: T4, K17A
R37A = target: T5, R37A
Q41A = target: T6, Q41A
V49A = target: T7, V49A
R93A = target: T8, R93A
P8A = target: T9, P8A
E9A = target: T10, E9A

| % of WT hCD27 binding (geo mean FITC) (W13A) | % of WT hCD27 binding (geo mean FITC) (Q15A) | % of WT hCD27 binding (geo mean FITC) (G16A) | % of WT hCD27 binding (geo mean FITC) (K17A) | % of WT hCD27 binding (geo mean FITC) (R37A) | % of WT hCD27 binding (geo mean FITC) (Q41A) | % of WT hCD27 binding (geo mean FITC) (V49A) | % of WT hCD27 binding (geo mean FITC) (R93A) | % of WT hCD27 binding (geo mean FITC) (P8A) | % of WT hCD27 binding (geo mean FITC) (E9A) | Molecule |
| --- | --- | --- | --- | --- | --- | --- | --- | --- | --- | --- |
| 89.1% | 32% | 90.8% | 32.4% | 115% | 106% | 144% | 120% | 84.5% | 98.2% | 1A4 (mouse IgG1) (antibody) |
| 90.7% | 107% | 94.7% | 98% | 35% | 113% | 151% | 122% | 68.5% | 96.6% | 9F4 (mouse IgG2a) (antibody) |
| 86% | 99.6% | 94.8% | 103% | 50.3% | 108% | 147% | 125% | 44.9% | 96.7% | Antibody hCD27.131A (mouse parental 131A) (antibody, V domains shown, mouse IgG1; also called mouse hCD27.131A) VH: QIQLVQSGPELKKPGETVKISCKASGYTFTNYGMNWVKQAPGKGLKWMGWINTNTGEPTYAEEFKGRFAFSLETSATTAYLQINNLKNEDTATYFCAREGDAMDYWGQGTSVTVSS VL: QIVLTQSPAIMSASPGEKVTMTCSASSSVSYMHWYQQKSGTSPKRWIYDTSKLASGVPARFSGSGSGTSYSLTISSMEAEDAATYYCQQWNSYPFTFGSGTKLEIK |
